Test results reported in article PMC1472246, “Structural Basis for a Munc13–1 Homodimer to Munc13–1/RIM Heterodimer Switch” (PLoS Biology, 2006).
Read-outs that look alike come from different tables or passages of the source.

B2: Munc13–1(3–209) (domain or fragment, rat, UniProt Q62768 3-209, looked up)
chain: LLCVGVKKAKFDGAQEKFNTYVTLKVQNVKSTTIAVRGSQPSWEQDFMFEINRLDLGLTVEVWNKGLIWDTMVGTVWIPLRTIRQSNEEGPGEWLTLDSQAIMADSEICGTKDPTFHRILLDAHFELPLDIPEEEARYWAKKLEQLNAMRDQDEYSFQDQQDKPLPVPSSQCCNWNYFGWGEQNDDPDSAVDDRDSDYRSETSNSIP
notes: Munc13-1, rat, residues 3-209; Forms a homodimer (AUC); 15N-labelled for NMR; source: bacteria, GST fusion, purified (glutathione-Sepharose, GST cleaved, size-exclusion or ion-exchange chromatography)
B5: Munc13–1(3–150) (domain or fragment, rat, UniProt Q62768 3-150, looked up)
chain: LLCVGVKKAKFDGAQEKFNTYVTLKVQNVKSTTIAVRGSQPSWEQDFMFEINRLDLGLTVEVWNKGLIWDTMVGTVWIPLRTIRQSNEEGPGEWLTLDSQAIMADSEICGTKDPTFHRILLDAHFELPLDIPEEEARYWAKKLEQLNA
notes: Munc13-1, rat, residues 3-150 (C2A domain and C-terminal extension); Forms a homodimer (AUC); 15N-labelled for NMR; source: bacteria, GST fusion, purified (glutathione-Sepharose, GST cleaved, size-exclusion or ion-exchange chromatography)

What was measured:
[1] = molecular target: RIM2α ZF domain (Rattus norvegicus) (UniProt Q9JIS1); settings: cited from earlier work
[2] = molecular target: RIM2α ZF domain (Rattus norvegicus) (UniProt Q9JIS1); settings: cited from earlier work; remark: listed apart in the source
[3] = molecular target: the molecule itself; assay: AUC; sedimentation equilibrium at 20,000-35,000 rpm, 4 °C; 30 mM Tris pH 8.0, 150 mM NaCl, 1 mM TCEP; loading 12.46-13.65 μM; monomer/dimer equilibrium model, dimer to monomers; the paper notes that constants below 50-100 nM are not quite accurate
[4] = molecular target: Munc13–1(3–150)(K32E) (rat) (UniProt Q62768); assay: ITC; 200 μM Rim2α(82-142) injected into 10-20 μM Munc13-1(3-150)(K32E) in the cell; 20 °C; 30 mM Tris pH 7.4, 150 mM NaCl, 1 mM TCEP; single-site model; apparent Kd
Munc13–1(3–209) = molecular target: B2; assay: SEC; gel filtration on Superdex S75 or S200; 30 mM Tris-HCl, 150 mM NaCl, 1 mM TCEP, pH 7.4; isolated proteins and their mixtures (Figures 1B, 4A); settings: both partners purified
Munc13–1(3–150) = molecular target: B5; assay: as above; settings: both partners purified

Munc13-1 3-209 (from UniProt Q62768)
Kd [1]: 0.07 µM

Munc13-1 3-150 (from UniProt Q62768)
Kd [2]: 0.35 µM

B1: Munc13–1(3–128) (domain or fragment, rat, UniProt Q62768 3-128, looked up)
chain: LLCVGVKKAKFDGAQEKFNTYVTLKVQNVKSTTIAVRGSQPSWEQDFMFEINRLDLGLTVEVWNKGLIWDTMVGTVWIPLRTIRQSNEEGPGEWLTLDSQAIMADSEICGTKDPTFHRILLDAHFE
notes: Cloned into a modified pGEX-KG vector with a TEV protease cleavage site; Forms a homodimer (AUC, crystal structure); 15N-labelled for NMR; also called Munc13–1 C2A domain; Munc13–1 C2A-domain homodimer; source: bacteria, GST fusion, purified (glutathione-Sepharose, GST cleaved, size-exclusion or ion-exchange chromatography)
Kd [3]: 0.31 µM
stoichiometry N [3]: 2

B2
Kd [3]: 0.0019 µM
stoichiometry N [3]: 2

B3: RIM2α(82–142) (domain or fragment, rat, UniProt Q9JIS1-1 82-142, looked up)
chain: QQEQKGDAPTCGICHKTKFADGCGHNCSYCQTKFCARCGGRVSLRSNKVMWVCNLCRKQQE
notes: also called RIM2α ZF domain; RIM2α zinc-finger domain; source: bacteria, GST fusion, purified (glutathione-Sepharose, GST cleaved, size-exclusion or ion-exchange chromatography)
Kd [4]: 0.1 µM
stoichiometry N [4]: 1
binding result (Munc13–1(3–209)): binds
binding result (Munc13–1(3–150)): binds

B4: Munc13–1(3–132) (domain or fragment, rat, UniProt Q62768 3-132, looked up)
chain: LLCVGVKKAKFDGAQEKFNTYVTLKVQNVKSTTIAVRGSQPSWEQDFMFEINRLDLGLTVEVWNKGLIWDTMVGTVWIPLRTIRQSNEEGPGEWLTLDSQAIMADSEICGTKDPTFHRILLDAHFELPLD
notes: Forms a homodimer (AUC); source: bacteria, GST fusion, purified (glutathione-Sepharose, GST cleaved, size-exclusion or ion-exchange chromatography)
Kd [3]: 0.08 µM
stoichiometry N [3]: 2

B5
Kd [3]: 0.0052 µM
stoichiometry N [3]: 2
